As usually defined, the Kd is the concentration at which binding is half-saturated. The low end stands for higher affinity, the high end for lower affinity.

Consider 16 molecules from US20250388666A1 (BRIGHAM AND WOMEN S HOSPITAL, published 2025).

The test has as its target T1, CEACAM1 (Sino Biological) (human, UniProt P13688 35-428, limits assumed).
T1 construct: may be the same as CEACAM1-HIS; also called hCEACAM1; biotinylated soluble CEACAM1
T1 sequence: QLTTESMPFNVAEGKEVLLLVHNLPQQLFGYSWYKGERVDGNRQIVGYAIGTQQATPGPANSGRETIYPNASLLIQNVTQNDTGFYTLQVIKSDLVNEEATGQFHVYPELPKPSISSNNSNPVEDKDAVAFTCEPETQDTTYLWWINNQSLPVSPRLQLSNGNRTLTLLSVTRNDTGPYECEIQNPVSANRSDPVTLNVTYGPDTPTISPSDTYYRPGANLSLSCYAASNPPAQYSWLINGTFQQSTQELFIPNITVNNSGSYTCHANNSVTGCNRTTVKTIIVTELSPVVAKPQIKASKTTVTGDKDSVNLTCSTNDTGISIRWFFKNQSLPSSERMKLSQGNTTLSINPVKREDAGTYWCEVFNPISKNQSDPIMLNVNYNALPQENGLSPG
Kind of test: SPR single-cycle. The method, then:
To assess the binding of the humanized affinity matured IgGs, single cycle kinetics analysis was performed on crude supernatants using a Biacore T200 running Biacore T200 Control Software V2.0.1 and Biacore T200 Evaluation Software V3.0 (Uppsala, Sweden). Antibodies were diluted in HBS-P+ (GE Healthcare) to a final concentration of […]. At the start of each cycle, antibodies were loaded onto Fc2, Fc3 and Fc4 of the Protein A chip (GE Healthcare). IgGs were captured at a flow rate of 10 μl/min to give an immobilization level (RL) of ˜100 RU (a level calculated to obtain an Rmax of ˜50-150 RU once the analyte is bound). The surface was then allowed to stabilize. Single cycle kinetics data was obtained with CEACAM1 as the analyte at a flow rate of […] to minimize any potential mass transfer effects. Multiple repeats with the parent (VH2 N56Q/Vκ4 S27(f)A) antibody were performed to check the stability of the surface and analyte over the kinetic cycles. The signal from the reference channel Fc1 (no antibody) was subtracted from that of Fc2, Fc3 and Fc4 to correct for differences in non-specific binding to the reference surface. A three point, two-fold dilution range from 25 nM to 100 nM CEACAM 1 without regeneration between each concentration was used. The signal from each antibody blank run (no CEACAM1) was subtracted to correct for differences in surface stability. The association phase for the three injections of increasing concentrations of CEACAM1 was monitored for 200 seconds each time and a single dissociation phase was measured for 300 seconds following the last injection of CEACAM1. Regeneration of the Protein A surface was conducted using two injections of 10 mM glycine-HCL pH 1.5 followed by a stabilization period of 240 seconds.

B1: He4/L1 (antibody, IgG4, V domains shown)
VH: EVQLLESGGGLVQPGGSLRLSCAASGFSFSDYYLYWVRQAPGKGLEWVATISVGGGQTSYADSVKGRFTISRDNSKNTLYLQMNSLRAEDTAMYYCTRALYYGPAWFAYWGQGTLVTVSS
VL: DIVMTQSPDSLAVSLGERATINCKSSQSLLNSANQKNYLAWYQQKPGQPPKLLIYFASTRESGVPDRFSGSGSGTDFTLTISSLQAEDVAVYYCQSHYPFYYTFGGGTKVEIK
notes: IgG4 S241P, kappa
Take B1: the affinity, expressed as Kd, was 64 nM and the “fold better than Parent (KD)” value was determined as 2.49 fold.

B2: He6/L2 (antibody, IgG4, V domains shown)
VH: EVQLLESGGGLVQPGGSLRLSCAASGFSFSDYYLYWVRQAPGKGLEWVATISVGGGQTSYADSVKGRFTISRDNSKNTLYLQMNSLRAEDTAMYYCARARTYGPAWFAYWGQGTLVTVSS
VL: DIVMTQSPDSLAVSLGERATINCKSSQSLLNSANQKNYLAWYQQKPGQPPKLLIYFASTRESGVPDRFSGSGSGTDFTLTISSLQAEDVAVYYCQSHYPFPYTFGGGTKVEIK
notes: IgG4 S241P, kappa
For the molecule B2, the Kd is 104 nM and the “fold better than Parent (KD)” value was 1.53 fold.

B3: He6/L4 #1 (antibody, IgG4, V domains shown)
VH: EVQLLESGGGLVQPGGSLRLSCAASGFSFSDYYLYWVRQAPGKGLEWVATISVGGGQTSYADSVKGRFTISRDNSKNTLYLQMNSLRAEDTAMYYCARARTYGPAWFAYWGQGTLVTVSS
VL: DIVMTQSPDSLAVSLGERATINCKSSQSLLNSANQKNYLAWYQQKPGQPPKLLIYFASTRESGVPDRFSGSGSGTDFTLTISSLQAEDVAVYYCQSHFPYYYTFGGGTKVEIK
notes: IgG4 S241P, kappa
Regarding B3, the Kd came out at 155 nM and the “fold better than Parent (KD)” value stood at 1.03 fold.

B4: He4/L18 (antibody, IgG4, V domains shown)
VH: EVQLLESGGGLVQPGGSLRLSCAASGFSFSDYYLYWVRQAPGKGLEWVATISVGGGQTSYADSVKGRFTISRDNSKNTLYLQMNSLRAEDTAMYYCTRALYYGPAWFAYWGQGTLVTVSS
VL: DIVMTQSPDSLAVSLGERATINCKSSQSLLNSANQKNYLAWYQQKPGQPPKLLIYFASTRESGVPDRFSGSGSGTDFTLTISSLQAEDVAVYYCQSHFPYPFTFGGGTKVEIK
notes: IgG4 S241P, kappa
For B4, the affinity, expressed as Kd, was 55 nM and the “fold better than Parent (KD)” value came to 2.89 fold.

B5: He4/L2 (antibody, IgG4, V domains shown)
VH: EVQLLESGGGLVQPGGSLRLSCAASGFSFSDYYLYWVRQAPGKGLEWVATISVGGGQTSYADSVKGRFTISRDNSKNTLYLQMNSLRAEDTAMYYCTRALYYGPAWFAYWGQGTLVTVSS
VL: DIVMTQSPDSLAVSLGERATINCKSSQSLLNSANQKNYLAWYQQKPGQPPKLLIYFASTRESGVPDRFSGSGSGTDFTLTISSLQAEDVAVYYCQSHYPFPYTFGGGTKVEIK
notes: IgG4 S241P, kappa
Consider B5, for which the Kd was 76 nM and the “fold better than Parent (KD)” value is 2.09 fold.

B6: He4/L20 (antibody, IgG4, V domains shown)
VH: EVQLLESGGGLVQPGGSLRLSCAASGFSFSDYYLYWVRQAPGKGLEWVATISVGGGQTSYADSVKGRFTISRDNSKNTLYLQMNSLRAEDTAMYYCTRALYYGPAWFAYWGQGTLVTVSS
VL: DIVMTQSPDSLAVSLGERATINCKSSQSLLNSANQKNYLAWYQQKPGQPPKLLIYFASTRESGVPDRFSGSGSGTDFTLTISSLQAEDVAVYYCQSHFPYPLTFGGGTKVEIK
notes: IgG4 S241P, kappa
With B6, binding was put at a Kd of 90 nM and the “fold better than Parent (KD)” value is 1.77 fold.

B7: He6/L1 (antibody, IgG4, V domains shown)
VH: EVQLLESGGGLVQPGGSLRLSCAASGFSFSDYYLYWVRQAPGKGLEWVATISVGGGQTSYADSVKGRFTISRDNSKNTLYLQMNSLRAEDTAMYYCARARTYGPAWFAYWGQGTLVTVSS
VL: DIVMTQSPDSLAVSLGERATINCKSSQSLLNSANQKNYLAWYQQKPGQPPKLLIYFASTRESGVPDRFSGSGSGTDFTLTISSLQAEDVAVYYCQSHYPFYYTFGGGTKVEIK
notes: IgG4 S241P, kappa
In the case of B7, the Kd is 98 nM and the “fold better than Parent (KD)” value worked out at 1.62 fold.

B8: He4/L3 (antibody, IgG4, V domains shown)
VH: EVQLLESGGGLVQPGGSLRLSCAASGFSFSDYYLYWVRQAPGKGLEWVATISVGGGQTSYADSVKGRFTISRDNSKNTLYLQMNSLRAEDTAMYYCTRALYYGPAWFAYWGQGTLVTVSS
VL: DIVMTQSPDSLAVSLGERATINCKSSQSLLNSANQKNYLAWYQQKPGQPPKLLIYFASTRESGVPDRFSGSGSGTDFTLTISSLQAEDVAVYYCQSHFPFPFTFGGGTKVEIK
notes: IgG4 S241P, kappa
As for B8, the affinity, expressed as Kd, was 55 nM and the “fold better than Parent (KD)” value is 2.87 fold.

B9: He4/L4 #1 (antibody, IgG4, V domains shown)
VH: EVQLLESGGGLVQPGGSLRLSCAASGFSFSDYYLYWVRQAPGKGLEWVATISVGGGQTSYADSVKGRFTISRDNSKNTLYLQMNSLRAEDTAMYYCTRALYYGPAWFAYWGQGTLVTVSS
VL: DIVMTQSPDSLAVSLGERATINCKSSQSLLNSANQKNYLAWYQQKPGQPPKLLIYFASTRESGVPDRFSGSGSGTDFTLTISSLQAEDVAVYYCQSHFPYYYTFGGGTKVEIK
notes: IgG4 S241P, kappa
B9: binding was put at a Kd of 83 nM and the “fold better than Parent (KD)” value is 1.91 fold.

B10: He4/Parent VL (antibody, IgG4, V domains shown)
VH: EVQLLESGGGLVQPGGSLRLSCAASGFSFSDYYLYWVRQAPGKGLEWVATISVGGGQTSYADSVKGRFTISRDNSKNTLYLQMNSLRAEDTAMYYCTRALYYGPAWFAYWGQGTLVTVSS
VL: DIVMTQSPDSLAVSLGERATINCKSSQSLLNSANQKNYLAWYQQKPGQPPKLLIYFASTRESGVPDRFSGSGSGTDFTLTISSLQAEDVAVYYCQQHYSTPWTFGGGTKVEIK
notes: IgG4 S241P, kappa
Consider B10, for which the Kd came to 155 nM and the “fold better than Parent (KD)” value is 1.03 fold.

B11: He4/L5 (antibody, IgG4, V domains shown)
VH: EVQLLESGGGLVQPGGSLRLSCAASGFSFSDYYLYWVRQAPGKGLEWVATISVGGGQTSYADSVKGRFTISRDNSKNTLYLQMNSLRAEDTAMYYCTRALYYGPAWFAYWGQGTLVTVSS
VL: DIVMTQSPDSLAVSLGERATINCKSSQSLLNSANQKNYLAWYQQKPGQPPKLLIYFASTRESGVPDRFSGSGSGTDFTLTISSLQAEDVAVYYCQSHYPFAFTFGGGTKVEIK
notes: IgG4 S241P, kappa
Regarding B11, the Kd stood at 68 nM and the “fold better than Parent (KD)” value is 2.36 fold.

B12: He4/L19 (antibody, IgG4, V domains shown)
VH: EVQLLESGGGLVQPGGSLRLSCAASGFSFSDYYLYWVRQAPGKGLEWVATISVGGGQTSYADSVKGRFTISRDNSKNTLYLQMNSLRAEDTAMYYCTRALYYGPAWFAYWGQGTLVTVSS
VL: DIVMTQSPDSLAVSLGERATINCKSSQSLLNSANQKNYLAWYQQKPGQPPKLLIYFASTRESGVPDRFSGSGSGTDFTLTISSLQAEDVAVYYCQSHIYPNFTFGGGTKVEIK
notes: IgG4 S241P, kappa
As for B12, the Kd was 90 nM and the “fold better than Parent (KD)” value amounted to 1.77 fold.

B13: He4/L4#2 (antibody, IgG4, V domains shown)
VH: EVQLLESGGGLVQPGGSLRLSCAASGFSFSDYYLYWVRQAPGKGLEWVATISVGGGQTSYADSVKGRFTISRDNSKNTLYLQMNSLRAEDTAMYYCTRALYYGPAWFAYWGQGTLVTVSS
VL: DIVMTQSPDSLAVSLGERATINCKSSQSLLNSANQKNYLAWYQQKPGQPPKLLIYFASTRESGVPDRFSGSGSGTDFTLTISSLQAEDVAVYYCQSHYPYPYTFGGGTKVEIK
notes: IgG4 S241P, kappa
In the case of B13, the Kd came to 127 nM and the “fold better than Parent (KD)” value was found to be 4.34 fold.

B14: He4/L17 (antibody, IgG4, V domains shown)
VH: EVQLLESGGGLVQPGGSLRLSCAASGFSFSDYYLYWVRQAPGKGLEWVATISVGGGQTSYADSVKGRFTISRDNSKNTLYLQMNSLRAEDTAMYYCTRALYYGPAWFAYWGQGTLVTVSS
VL: DIVMTQSPDSLAVSLGERATINCKSSQSLLNSANQKNYLAWYQQKPGQPPKLLIYFASTRESGVPDRFSGSGSGTDFTLTISSLQAEDVAVYYCQSHYPYPYTFGGGTKVEIK
notes: IgG4 S241P, kappa
In the case of B14, the Kd stood at 62 nM and the “fold better than Parent (KD)” value turned out to be 2.55 fold.

B15: He4/L6 (antibody, IgG4, V domains shown)
VH: EVQLLESGGGLVQPGGSLRLSCAASGFSFSDYYLYWVRQAPGKGLEWVATISVGGGQTSYADSVKGRFTISRDNSKNTLYLQMNSLRAEDTAMYYCTRALYYGPAWFAYWGQGTLVTVSS
VL: DIVMTQSPDSLAVSLGERATINCKSSQSLLNSANQKNYLAWYQQKPGQPPKLLIYFASTRESGVPDRFSGSGSGTDFTLTISSLQAEDVAVYYCQSHYPFSFTFGGGTKVEIK
notes: IgG4 S241P, kappa
As to B15, binding was characterised by a dissociation constant (Kd) of 72 nM and the “fold better than Parent (KD)” value amounted to 2.22 fold.

B16: He6/L3 (antibody, IgG4, V domains shown)
VH: EVQLLESGGGLVQPGGSLRLSCAASGFSFSDYYLYWVRQAPGKGLEWVATISVGGGQTSYADSVKGRFTISRDNSKNTLYLQMNSLRAEDTAMYYCARARTYGPAWFAYWGQGTLVTVSS
VL: DIVMTQSPDSLAVSLGERATINCKSSQSLLNSANQKNYLAWYQQKPGQPPKLLIYFASTRESGVPDRFSGSGSGTDFTLTISSLQAEDVAVYYCQSHFPFPFTFGGGTKVEIK
notes: IgG4 S241P, kappa
Take B16: the affinity, expressed as Kd, was 94 nM and the “fold better than Parent (KD)” value came out at 1.69 fold.
